Data from IntAct's records for PubMed 16301520.

B1: Mitochondrial antiviral-signaling protein (Homo sapiens), Q7Z434 (parent)
chain: MPFAEDKTYKYICRNFSNFCNVDVVEILPYLPCLTARDQDRLRATCTLSGNRDTLWHLFNTLQRRPGWVEYFIAALRGCELVDLADEVASVYQSYQPRTSDRPPDPLEPPSLPAERPGPPTPAAAHSIPYNSCREKEPSYPMPVQETQAPESPGENSEQALQTLSPRAIPRNPDGGPLESSSDLAALSPLTSSGHQEQDTELGSTHTAGATSSLTPSRGPVSPSVSFQPLARSTPRASRLPGPTGSVVSTGTSFSSSSPGLASAGAAEGKQGAESDQAEPIICSSGAEAPANSLPSKVPTTLMPVNTVALKVPANPASVSTVPSKLPTSSKPPGAVPSNALTNPAPSKLPINSTRAGMVPSKVPTSMVLTKVSASTVPTDGSSRNEETPAAPTPAGATGGSSAWLDSSSENRGLGSELSKPGVLASQVDSPFSGCFEDLAISASTSLGMGPCHGPEENEYKSEGTFGIHVAENPSIQLLEGNPGPPADPDGGPRPQADRKFQEREVPCHRPSPGALWLQVAVTGVLVVTLLVVLYRRRLH

Variants of: B1
Conditions: with polg_hcv77 polg

| Variant | effect of a mutation on the interaction |
| --- | --- |
| C508R | decreasing interaction |
